Here are results for four molecules from patent US20250215059A1 (REGENTS OF THE UNIVERSITY OF COLORADO A BODY CORPORATE, published 2025).

The labels stand for the following.
B1: SRRM2_4-Halo (other)
chain: MYNGIGLPTPRGSGTNGYVQRNLSLVRGRRGERPDYKGEEELRRLEAALVKRPNPDILDHERKRRVELRCLELEEMMEEQGYEEQQIQEKVATFRLMLLEKDVNPGGKEETPGQRPAVTETHQLAELNEKKNERLRAAFGISDSYVDGSSFDPQRRAREAKQPAPEPPKPYSLVRESSSSRSPTPKQKKKKKKKDRGRRSESSSPRRERKKSSKKKKHRSESESKKRKHRSPTPKSKRKSKDKKRKRSRSTTPAPKSRRAHRSTSADSASSSDTSRSRSRSAAAKTHTTALAGRSPSPASGRRGEGDAPFSEPGTTSTQRPSSPETATKQPSSPYEDKDKDKKEKSATRPSPSPERSSTGPEPPAPTPLLAERHGGSPQPLATTPLSQEPVNPPSEASPTRDRSPPKSPEKLPQSSSSESSPPSPQPTKVSRHASSSPESPKPAPAPGSHREISSSPTSKNRSHGRAKRDKSHSHTPSRRMGRSRSPATAKRGRSRSRTPTKRGHSRSRSPQWRRSRSAQRWGRSRSPQRRGRSRSPQRPGWSRSRNTQRRGRSRSARRGRSHSRSPATRGRSRSRTPARRGRSRSRTPARRRSRSRTPTRRRSRSRTPARRGRSRSRTPARRRSRTRSPVRRRSRSRSPARRSGRSRSRTPARRGRSRSRTPARRGRSRSRTPARRSGRSRSRTPARRGRSRSRTPRRGRSRSRSLVRRGRSHSRTPQRRGRSGSSSERKNKSRTSQRRSRSNSSPEMKKSRISSRRSRSLSSPRSKAKSRLSLRRSLSGSSPCPKQKSQTPPRRSRSGSSQPKAKSRTPPRRSRSSSSPPPKQKSKTPSRQSHSSSSPHPKVKSGTPPRQGSITSPQANEQSVTPQRRSCFESSPDPELKSRTPSRHSCSGSSPPRVKSSTPPRQSPSRSSSPQPKVKAIISPRQRSHSGSSSPSPSRVTSRTTPRRSRSVSPCSNVESRLLPRYSHSGSSSPDTKVKPETPPRQSHSGSISPYPKVKAQTPPGPSLSGSKSPCPQEKSKDSLVQSCPGSLSLCAGVKSSTPPGESYFGVSSLQLKGQSQTSPDHRSDTSSPEVRQSHSESPSLQSKSQTSPKGGRSRSSSPVTELASRSPIRQDRGEFSASPMLKSGMSPEQSRFQSDSSSYPTVDSNSLLGQSRLETAESKEKMALPPQEDATASPPRQKDKFSPFPVQDRPESSLVFKDTLRTPPRERSGAGSSPETKEQNSALPTSSQDEELMEVVEKSEEPAGQILSHLSSELKEMSTSNFESSPEVEERPAVSLTLDQSQSQASLEAVEVPSMASSWGGPHFSPEHKELSNSPLRENSFGSPLEFRNSGPLGTEMNTGFSSEVKEDLNGPFMAEIGTGFPFDPHYVEVLGERMHYVDVGPRDGTPVLFLHGNPTSSYVWRNIIPHVAPTHRCIAPDLIGMGKSDKPDLGYFFDDHVRFMDAFIEALGLEEVVLVIHDWGSALGFHWAKRNPERVKGIAFMEFIRPIPTWDEWPEFARETFQAFRTTDVGRKLIIDQNVFIEGTLPMGVVRPLTEVEMDHYREPFLNPVDREPLWRFPNELPIAGEPANIVALVEEYMDWLHQSPVPKLLFWGTPGVLIPPAEAARLAKSLPNCKAVDIGPGLNLLQEDNPDLIGSEIARWLSTLEISG
modifications: JF646 Halo ligand covalently bound to the Halo tag
notes: also called truncation 4
B2: SRRM2_7-Halo (other)
chain: MYNGIGLPTPRGSGTNGYVQRNLSLVRGRRGERPDYKGEEELRRLEAALVKRPNPDILDHERKRRVELRCLELEEMMEEQGYEEQQIQEKVATFRLMLLEKDVNPGGKEETPGQRPAVTETHQLAELNEKKNERLRAAFGISDSYVDGSSFDPQRRAREAKQPAPEPPKPYSLVRESSSSRSPTPKQKKKKKKKDRGRRSESSSPRRERKKSSKKKKHRSESESKKRKHRSPTPKSKRKSKDKKRKRSRSTTPAPKSRRAHRSTSADSASSSDTSRSRSRSAAAKTHTTALAGRSPSPASGRRGEGDAPFSEPGTTSTQRPSSPETATKQPSSPYEDKDKDKKEKSATRPSPSPERSSTGPEPPAPTPLLAERHGGSPQPLATTPLSQEPVNPPSEASPTRDRSPPKSPEKLPQSSSSESSPPSPQPTKVMAEIGTGFPFDPHYVEVLGERMHYVDVGPRDGTPVLFLHGNPTSSYVWRNIIPHVAPTHRCIAPDLIGMGKSDKPDLGYFFDDHVRFMDAFIEALGLEEVVLVIHDWGSALGFHWAKRNPERVKGIAFMEFIRPIPTWDEWPEFARETFQAFRTTDVGRKLIIDQNVFIEGTLPMGVVRPLTEVEMDHYREPFLNPVDREPLWRFPNELPIAGEPANIVALVEEYMDWLHQSPVPKLLFWGTPGVLIPPAEAARLAKSLPNCKAVDIGPGLNLLQEDNPDLIGSEIARWLSTLEISG
modifications: JF646 Halo ligand covalently bound to the Halo tag
notes: also called truncation 7
B3: SRRM2_6-Halo (other)
chain: MYNGIGLPTPRGSGTNGYVQRNLSLVRGRRGERPDYKGEEELRRLEAALVKRPNPDILDHERKRRVELRCLELEEMMEEQGYEEQQIQEKVATFRLMLLEKDVNPGGKEETPGQRPAVTETHQLAELNEKKNERLRAAFGISDSYVDGSSFDPQRRAREAKQPAPEPPKPYSLVRESSSSRSPTPKQKKKKKKKDRGRRSESSSPRRERKKSSKKKKHRSESESKKRKHRSPTPKSKRKSKDKKRKRSRSTTPAPKSRRAHRSTSADSASSSDTSRSRSRSAAAKTHTTALAGRSPSPASGRRGEGDAPFSEPGTTSTQRPSSPETATKQPSSPYEDKDKDKKEKSATRPSPSPERSSTGPEPPAPTPLLAERHGGSPQPLATTPLSQEPVNPPSEASPTRDRSPPKSPEKLPQSSSSESSPPSPQPTKVSRHASSSPESPKPAPAPGSHREISSSPTSKNRSHGRAKRDKSHSHTPSRRMGRSRSPATAKRGRSRSRTPTKRGHSRSRSPQWRRSRSAQRWGRSRSPQRRGRSRSPQRPGWSRSRNTQRRGRSRSARMAEIGTGFPFDPHYVEVLGERMHYVDVGPRDGTPVLFLHGNPTSSYVWRNIIPHVAPTHRCIAPDLIGMGKSDKPDLGYFFDDHVRFMDAFIEALGLEEVVLVIHDWGSALGFHWAKRNPERVKGIAFMEFIRPIPTWDEWPEFARETFQAFRTTDVGRKLIIDQNVFIEGTLPMGVVRPLTEVEMDHYREPFLNPVDREPLWRFPNELPIAGEPANIVALVEEYMDWLHQSPVPKLLFWGTPGVLIPPAEAARLAKSLPNCKAVDIGPGLNLLQEDNPDLIGSEIARWLSTLEISG
modifications: JF646 Halo ligand covalently bound to the Halo tag
notes: also called truncation 6
B4: SRRM2_5-Halo (other)
chain: MYNGIGLPTPRGSGTNGYVQRNLSLVRGRRGERPDYKGEEELRRLEAALVKRPNPDILDHERKRRVELRCLELEEMMEEQGYEEQQIQEKVATFRLMLLEKDVNPGGKEETPGQRPAVTETHQLAELNEKKNERLRAAFGISDSYVDGSSFDPQRRAREAKQPAPEPPKPYSLVRESSSSRSPTPKQKKKKKKKDRGRRSESSSPRRERKKSSKKKKHRSESESKKRKHRSPTPKSKRKSKDKKRKRSRSTTPAPKSRRAHRSTSADSASSSDTSRSRSRSAAAKTHTTALAGRSPSPASGRRGEGDAPFSEPGTTSTQRPSSPETATKQPSSPYEDKDKDKKEKSATRPSPSPERSSTGPEPPAPTPLLAERHGGSPQPLATTPLSQEPVNPPSEASPTRDRSPPKSPEKLPQSSSSESSPPSPQPTKVSRHASSSPESPKPAPAPGSHREISSSPTSKNRSHGRAKRDKSHSHTPSRRMGRSRSPATAKRGRSRSRTPTKRGHSRSRSPQWRRSRSAQRWGRSRSPQRRGRSRSPQRPGWSRSRNTQRRGRSRSARRGRSHSRSPATRGRSRSRTPARRGRSRSRTPARRRSRSRTPTRRRSRSRTPARRGRSRSRTPARRRSRTRSPVRRRSRSRSPARRSGRSRSRTPARRGRSRSRTPARRGRSRSRTPARRSGRSRSRTPARRGRSRSRTPRRGRSRSRSLVRRGRSHSRTPQRRGRSGSSSERKNKSRTSQRRSRSNSSPEMKKSRISSRRSRSLSSPRSKAKSRLSLRRSLSGSSPCPKQKSQTPPRRSRSGSSQPKMAEIGTGFPFDPHYVEVLGERMHYVDVGPRDGTPVLFLHGNPTSSYVWRNIIPHVAPTHRCIAPDLIGMGKSDKPDLGYFFDDHVRFMDAFIEALGLEEVVLVIHDWGSALGFHWAKRNPERVKGIAFMEFIRPIPTWDEWPEFARETFQAFRTTDVGRKLIIDQNVFIEGTLPMGVVRPLTEVEMDHYREPFLNPVDREPLWRFPNELPIAGEPANIVALVEEYMDWLHQSPVPKLLFWGTPGVLIPPAEAARLAKSLPNCKAVDIGPGLNLLQEDNPDLIGSEIARWLSTLEISG
modifications: JF646 Halo ligand covalently bound to the Halo tag
notes: also called truncation 5

The assay deals with T1, tau aggregates in HEK293 tau biosensor cells (4R repeat domain of tau (K18) with the P301S mutation fused to … (UniProt P10636-8 244-372)).
T1 construct: domain: 4R repeat domain of tau (K18); Aggregated, insoluble form inside cells; the aggregates are seeded with brain homogenate of tau transgenic mice and may hold other proteins and RNA; Number of chains in an aggregate not defined; also called cytoplasmic tau aggregates; nuclear tau aggregates; not shown: CFP or YFP fused to the repeat domain
T1 sequence (P10636 561-689 P618S): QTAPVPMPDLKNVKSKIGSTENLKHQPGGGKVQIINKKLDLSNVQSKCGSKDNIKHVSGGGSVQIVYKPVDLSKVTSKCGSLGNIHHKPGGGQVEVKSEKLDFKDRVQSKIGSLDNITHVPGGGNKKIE
Nature of the assay: Halo (JF646) imaging in seeded HEK293 tau biosensor cells.
With B1, the binding result is “no binding”.
To B2 belongs “no binding”; to B3, “no binding”.
To B4 belongs “no binding”.
